Test results taken from publication PMC3769225, “Modulation of Global Low-Frequency Motions Underlies Allosteric Regulation: Demonstration in CRP/FNR Family Transcription Factors” (PLoS Biology, 2013).

Target: the molecule itself
Experiment: crystal structure; homodimer in crystals grown at pH 6.5 with 7-10% PEG 3350, 15-20% 2-methyl-2,4-pentanediol and 2 mM cAMP; cAMP-bound protein

B1: Catabolite Activator Protein (CAP) of Escherichia coli, wild-type (natural protein, UniProt P0ACJ8 1-210, looked up)
chain: MVLGKPQTDPTLEWFLSHCHIHKYPSKSTLIHQGEKAETLYYIVKGSVAVLIKDEEGKEMILSYLNQGDFIGELGLFEEGQERSAWVRAKTACEVAEISYKKFRQLIQVNPDILMRLSAQMARRLQVTSEKVGNLAFLDVTGRIAQTLLNLAKQPDAMTHPDGMQIKITRQEIGQIVGCSRETVGRILKMLEDQNLISAHGKTIVVYGTR
notes: also called CAP wild-type
binding result: binds

B2: CAP V140L (natural protein, Escherichia coli, UniProt P0ACJ8 1-210, looked up)
chain: MVLGKPQTDPTLEWFLSHCHIHKYPSKSTLIHQGEKAETLYYIVKGSVAVLIKDEEGKEMILSYLNQGDFIGELGLFEEGQERSAWVRAKTACEVAEISYKKFRQLIQVNPDILMRLSAQMARRLQVTSEKVGNLAFLDLTGRIAQTLLNLAKQPDAMTHPDGMQIKITRQEIGQIVGCSRETVGRILKMLEDQNLISAHGKTIVVYGTR
binding result: binds

B3: CAP V132A (natural protein, Escherichia coli, UniProt P0ACJ8 1-210, looked up)
chain: MVLGKPQTDPTLEWFLSHCHIHKYPSKSTLIHQGEKAETLYYIVKGSVAVLIKDEEGKEMILSYLNQGDFIGELGLFEEGQERSAWVRAKTACEVAEISYKKFRQLIQVNPDILMRLSAQMARRLQVTSEKAGNLAFLDVTGRIAQTLLNLAKQPDAMTHPDGMQIKITRQEIGQIVGCSRETVGRILKMLEDQNLISAHGKTIVVYGTR
binding result: binds

B4: CAP V140A (natural protein, Escherichia coli, UniProt P0ACJ8 1-210, looked up)
chain: MVLGKPQTDPTLEWFLSHCHIHKYPSKSTLIHQGEKAETLYYIVKGSVAVLIKDEEGKEMILSYLNQGDFIGELGLFEEGQERSAWVRAKTACEVAEISYKKFRQLIQVNPDILMRLSAQMARRLQVTSEKVGNLAFLDATGRIAQTLLNLAKQPDAMTHPDGMQIKITRQEIGQIVGCSRETVGRILKMLEDQNLISAHGKTIVVYGTR
binding result: binds

B5: CAP H160L (natural protein, Escherichia coli, UniProt P0ACJ8 1-210, looked up)
chain: MVLGKPQTDPTLEWFLSHCHIHKYPSKSTLIHQGEKAETLYYIVKGSVAVLIKDEEGKEMILSYLNQGDFIGELGLFEEGQERSAWVRAKTACEVAEISYKKFRQLIQVNPDILMRLSAQMARRLQVTSEKVGNLAFLDVTGRIAQTLLNLAKQPDAMTLPDGMQIKITRQEIGQIVGCSRETVGRILKMLEDQNLISAHGKTIVVYGTR
binding result: binds

B6: CAP V132L (natural protein, Escherichia coli, UniProt P0ACJ8 1-210, looked up)
chain: MVLGKPQTDPTLEWFLSHCHIHKYPSKSTLIHQGEKAETLYYIVKGSVAVLIKDEEGKEMILSYLNQGDFIGELGLFEEGQERSAWVRAKTACEVAEISYKKFRQLIQVNPDILMRLSAQMARRLQVTSEKLGNLAFLDVTGRIAQTLLNLAKQPDAMTHPDGMQIKITRQEIGQIVGCSRETVGRILKMLEDQNLISAHGKTIVVYGTR
binding result: binds
